Experimental data from patent US20260347449 (published 2026).
Read-outs that look alike come from different tables or passages of the source. One block for each binder: values may come before it.

What was measured:
[1] = biological target: T1, human C5 (human, UniProt P01031); assay: BLI
[2] = biological target: T1, human C5; assay: BLI; remark: listed apart in the source
[3] = biological target: T2, cynomolgus C5 (cynomolgus); assay: BLI
T2 chain: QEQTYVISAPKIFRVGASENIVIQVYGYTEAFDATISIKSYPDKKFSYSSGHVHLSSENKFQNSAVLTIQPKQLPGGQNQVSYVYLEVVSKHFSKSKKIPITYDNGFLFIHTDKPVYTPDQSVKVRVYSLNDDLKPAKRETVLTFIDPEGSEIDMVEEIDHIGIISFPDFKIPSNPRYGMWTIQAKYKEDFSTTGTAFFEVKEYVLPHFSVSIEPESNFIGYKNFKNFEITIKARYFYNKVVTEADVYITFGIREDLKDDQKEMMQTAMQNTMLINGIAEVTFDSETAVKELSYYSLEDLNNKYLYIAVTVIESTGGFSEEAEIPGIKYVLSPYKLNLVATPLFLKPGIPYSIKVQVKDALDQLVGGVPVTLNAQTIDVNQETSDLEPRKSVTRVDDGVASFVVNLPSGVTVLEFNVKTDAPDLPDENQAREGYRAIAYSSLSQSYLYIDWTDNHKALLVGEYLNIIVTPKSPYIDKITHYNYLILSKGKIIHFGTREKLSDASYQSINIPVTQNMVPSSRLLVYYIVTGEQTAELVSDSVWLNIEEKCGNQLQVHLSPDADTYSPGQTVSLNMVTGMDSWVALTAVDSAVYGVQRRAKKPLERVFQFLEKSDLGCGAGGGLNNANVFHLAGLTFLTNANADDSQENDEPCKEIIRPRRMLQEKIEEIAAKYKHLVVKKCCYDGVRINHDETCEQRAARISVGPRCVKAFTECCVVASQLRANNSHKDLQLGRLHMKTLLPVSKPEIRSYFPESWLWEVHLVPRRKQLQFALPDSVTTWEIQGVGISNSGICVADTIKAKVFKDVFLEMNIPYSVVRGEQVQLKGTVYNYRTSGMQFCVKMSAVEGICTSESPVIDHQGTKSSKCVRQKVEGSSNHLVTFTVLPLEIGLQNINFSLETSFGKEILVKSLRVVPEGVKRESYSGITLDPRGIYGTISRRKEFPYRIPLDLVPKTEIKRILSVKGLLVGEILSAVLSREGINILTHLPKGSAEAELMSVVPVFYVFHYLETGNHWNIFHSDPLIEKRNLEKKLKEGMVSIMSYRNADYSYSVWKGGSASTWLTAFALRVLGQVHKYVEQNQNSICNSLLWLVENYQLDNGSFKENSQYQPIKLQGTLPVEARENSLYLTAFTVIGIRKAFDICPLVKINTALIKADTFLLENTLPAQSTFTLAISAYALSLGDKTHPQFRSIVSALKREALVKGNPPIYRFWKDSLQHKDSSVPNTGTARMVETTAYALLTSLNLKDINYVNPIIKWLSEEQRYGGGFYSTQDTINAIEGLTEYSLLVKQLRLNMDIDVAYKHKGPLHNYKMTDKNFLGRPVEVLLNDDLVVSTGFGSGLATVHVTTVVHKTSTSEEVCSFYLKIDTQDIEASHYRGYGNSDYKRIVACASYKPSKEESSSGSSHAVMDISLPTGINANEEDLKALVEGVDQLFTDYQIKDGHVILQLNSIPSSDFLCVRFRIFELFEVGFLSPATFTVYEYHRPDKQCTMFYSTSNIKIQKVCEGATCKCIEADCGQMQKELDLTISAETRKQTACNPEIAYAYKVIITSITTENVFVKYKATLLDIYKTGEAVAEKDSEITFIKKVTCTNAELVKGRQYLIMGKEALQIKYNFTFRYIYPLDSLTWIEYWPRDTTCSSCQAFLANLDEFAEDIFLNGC

[4] = biological target: human C5 R885H (human, UniProt P01031); assay: BLI
[5] = biological target: T3, human C3 (human, UniProt P01024); assay: BLI
[6] = biological target: human C5 W917S (human, UniProt P01031); assay: BLI
[7] = biological target: T1, human C5; assay: BLI, bivalent
[8] = biological target: T3, human C3; assay: BLI; remark: listed apart in the source

Kd [1]: 12 nM
Kd [2]: 12 nM
binding result [3]: no binding
binding result [4]: no binding
binding result [5]: no binding
binding result [6]: no binding
B1: C5S2.2 (antibody, V domains shown)
VH: EVQLVESGGGLVQAGGSLRLSCAASGNIFHQSDMGWYRQAPGKEREFVAAIDYGTNTYYADSVKGRFTISRDNSKNTLYLQMNSLRPEDTAVYYCAARDTSYWDHVYWGQGTLVTVSS

Kd [7]: 0.654 nM
B2: C5S2.2-Fc (antibody, V domains shown)
VH: B1 VH

binding result [8]: no binding
B3: C3S7 (antibody, V domains shown)
VH: QVQLQESGGGLVQAGGSLRLSCAASGYIFTGVDMGWYRQAPGKEREFVAAISYGASTYYADSVKGRFTISRDNAKNTVYLQMNSLKPEDTAVYYCAASLSNTYLLDLFFRYWGQGTQVTVSS
